In patent US20030180282A1, “Method of treatment of thrombotic events” (priority 2002, published 2003):

Experiments:
platelets [1] = assay: in vitro comparison of TNK versus t-PA on platelet activation and surface receptor expression (15 parameters); type: cell-based, human; conditions: TNK 12 μg/mL, t-PA 4 μg/mL, 30 minutes
Method: Blood samples for the in vitro study were obtained from 9 healthy volunteers. None of the subjects smoked or had hypertension, diabetes, or an abnormal hematocrit. None had received aspirin or any other antiplatelet drugs. All subjects underwent blood sampling after at least 30 minutes of rest and 2 or more hours of fasting. Blood was drawn from an antecubital vein between 8 am and 10 am in order to avoid any diurnal influence. A 21-gauge butterfly needle was used to draw blood into a tube containing 3.8% sodium citrate (1:9 volume); the first 1.5 mL of free running blood was discarded. One tube was kept as an internal control. A second tube was incubated with tenecteplase (TNK) for 30 minutes at room temperature in order to achieve a final concentration of 12 μg/mL. […]
For the platelet aggregation (PA) studies, platelet-rich plasma (PRP) was first isolated. […] Platelet counts were determined for each PRP sample with a Coulter Counter ZM (Coulter Co., Hialeah, Fla.). […] Platelet aggregation was determined by using a 4 channel Chrono-log Lumi-Aggregometer (model 560-Ca) and expressed as the maximum percentage of light transmittance change (% max) from the baseline at the end of the recording time. […] Platelet aggregability curves were recorded for 6 minutes and analyzed according to internationally established standards (see, e.g., Ruggeri, Z. M. (1994) Semin. Hemat. 31:229-239). […]

platelets [2] = assay: PFA-100 platelet function analyzer, closure time; type: cell-based, human; conditions: TNK 12 μg/mL, t-PA 4 μg/mL
Method: Blood samples for the in vitro study were obtained from 9 healthy volunteers. None of the subjects smoked or had hypertension, diabetes, or an abnormal hematocrit. None had received aspirin or any other antiplatelet drugs. All subjects underwent blood sampling after at least 30 minutes of rest and 2 or more hours of fasting. Blood was drawn from an antecubital vein between 8 am and 10 am in order to avoid any diurnal influence. A 21-gauge butterfly needle was used to draw blood into a tube containing 3.8% sodium citrate (1:9 volume); the first 1.5 mL of free running blood was discarded. One tube was kept as an internal control. A second tube was incubated with tenecteplase (TNK) for 30 minutes at room temperature in order to achieve a final concentration of 12 μg/mL. The third tube was similarly incubated with alteplase (t-PA) to achieve a concentration of 4 μg/mL. The concentrations of TNK and t-PA that were chosen approximated conventional plasma levels observed in patients receiving TNK and t-PA bolus (30 mg, and 15 mg, respectively; data on file, Genentech, Inc., South San Francisco, Calif.). Fresh solutions of TNK and t-PA were prepared in Dulbecco's phosphate buffered saline (DPBS) ex tempore on the morning of the platelet studies.
The PFA-100™ (Dade Behring, Deerfield, Ill.) is a high shear-inducing platelet function analyzer that simulates primary hemostasis after injury to a small vessel under flow conditions (see, e.g. Kundu, S. K. et al. (1996) Clin. Appl. Thromb. Hemost. 2:241-249). The device provides a constant negative pressure that aspirates a whole blood-citrate mixture, which comes into contact with a collagen-coated membrane and then passes through an aperture. The time required to obtain occlusion of the aperture is digitally recorded and is a measure of shear-induced platelet aggregation.
For all comparisons, statistical analyses were done by using repeated measures ANOVA. […] Normally distributed data were expressed as mean±SE, and skewed data as median (range). […]

[3] = system: platelet-derived biomarkers; assay: ASSENT-2 platelet substudy: ELISA of platelet-derived biomarkers in plasma of AMI patients; type: in vivo, human
Method: Forty-one patients with ST-segment elevation AMI enrolled in a single ASSENT-2 site (Rashid Hospital, Dubai, United Arab Emirates) were studied. The inclusion and exclusion criteria of ASSENT-2 have been previously reported ([no authors listed] (1999) Lancet 354:716-722). Briefly, patients included in the trial were between 18 and 70 years of age and were seen within 6 hours of symptom onset with >30 minutes of continuous symptoms. […] After informed consent was obtained, 7 serum samples were drawn. Samples were collected at baseline and at 30-minute intervals during a 180-minute period. Within 15 minutes of sample acquisition, plasma was separated by centrifugation at 800 g for 10 minutes, aspirated, placed in vials, and snapped frozen at −20° C.
Enzyme-linked immunosorbent assay (ELISA) was used according to standard sandwich techniques for CD 31 (sPECAM-1), sVACAM-1, sP-selectin, (R&D Systems Inc. Minneapolis, Minn.), beta-thromboglobulin, Asserachrom® (Diagnostica Stago Inc., Parsippany, N.J.), platelet factor 4 Asserachrom®, thromboxane, and prostacyclin (Cayman Chemical Co., MI). Each sample was measured in duplicate, and the overall intra-assay coefficient of variation was between 3.1%±0.4% and 7.6%±1.0%, with a plasma recovery rate between 89.7% and 98.7%.
For all comparisons, statistical analyses were done by using repeated measures ANOVA. Post hoc comparison was performed by use of the Bonferroni t-test to identify specific differences in platelet aggregation and receptor expression between patients treated with TNK and t-PA, and controls. The Mann-Whitney U test was used to analyze non-parametric data. Normally distributed data were expressed as mean±SE, and skewed data as median (range). Probability values of P<0.05 were regarded as statistically significant. Linear regression analysis was applied to normally distributed data for all study participants by using the Statview 4.1 program for analysis.
In the ASSENT-2 Platelet Substudy, 21 of the 41 patients enrolled received TNK (30-50 mg), while the remaining 20 received t-PA (40-85 mg). There were no substantial differences in baseline characteristics for the AMI patients.

B1: t-PA: recombinant tissue plasminogen activator, thrombolytic agent (Genentech) (protein, UniProt P00750 36-562, looked up)
Tissue-type plasminogen …: SYQVICRDEKTQMIYQQHQSWLRPVLRSNRVEYCWCNSGRAQCHSVPVKSCSEPRCFNGGTCQQALYFSDFVCQCPEGFAGKCCEIDTRATCYEDQGISYRGTWSTAESGAECTNWNSSALAQKPYSGRRPDAIRLGLGNHNYCRNPDRDSKPWCYVFKAGKYSSEFCSTPACSEGNSDCYFGNGSAYRGTHSLTESGASCLPWNSMILIGKVYTAQNPSAQALGLGKHNYCRNPDGDAKPWCHVLKNRRLTWEYCDVPSCSTCGLRQYSQPQFRIKGGLFADIASHPWQAAIFAKHRRSPGERFLCGGILISSCWILSAAHCFQERFPPHHLTVILGRTYRVVPGEEEQKFEVEKYIVHKEFDDDTYDNDIALLQLKSDSSRCAQESSVVRTVCLPPADLQLPDWTECELSGYGKHEALSPFYSERLKEAHVRLYPSSRCTSQHLLNRTVTDNMLCAGDTRSGGPQANLHDACQGDSGGPLVCLNDGRMTLVGIISWGLGCGQKDVPGVYTKVTNYLDWIRDNMRP
For B1, the “platelet function, 10 of 15 parameters, compared with baseline DPBS values” (platelets [1]) was “diminished platelet function”, the “closure time (PFA-100) compared with DPBS” value (platelets [2]) was “prolongation” and the “P-selectin plasma concentrations, course” value ([3]; 180-minute period) was “increase steadily”. For the same molecule, the “plasma levels of PECAM-1” value ([3]; AMI patients after thrombolysis) was “not in t-PA-treated patients”, the “release of substances from platelets (plasma biomarkers)” value ([3]; TNK 30-50 mg, t-PA 40-85 mg, 180-minute period) was “decreased release” and the “vascular cell adhesion molecule-1 (VCAM-1) release” value ([3]; after 90 minutes) was “no marked changes”. For the same molecule, the “concentrations of α-granule constituents” value ([3]; to a lesser extent than TNK) was “Decreased concentrations”.
